Patent US10328100B2 (Amorphical Ltd., priority 2007, dated 2019)
Values joined by “and” are separate entries in the source; they are usually repeats but may differ in a detail not shown here. Equal values may be shown once. “Also recorded” adds a separate entry of the source.

Experiments:
[1] = test system: GAP65 transcript; assay: GAP65 silencing by in vivo injections of GAP65 dsRNA (RNAi) to intermolt crayfish; set-up: species or system Cherax quadricarinatus
Method: Relative GAP65 transcript levels in the gastrolith epithelial disc following silencing using GAP65 dsRNA were measured using realtime RT-PCR and presented in FIG. 4. GAP65 levels were evaluated in crayfish injected with ecdysone and GAP65 dsRNA, ecdysone and dsRNA carrier, ecdysone and C. quadricarinatus vitellogenin (CqVg) dsRNA, and a control injected with both carriers. CqVg an hepatopancreatic specific gene found mostly in reproductive females, served as a control for sequence specific silencing. […] In the crayfish injected with ecdysone and CqVg dsRNA, GAP65 transcript levels were similar to the levels detected in the ecdysone and dsRNA carrier injected group. In the control carriers injected crayfish GAP65 transcript levels were higher than the levels found in the ecdysone and GAP65 dsRNA injected crayfish but lower than the levels detected in both the ecdysone and dsRNA injected, and the ecdysone CqVg dsRNA injected crayfish.
In order to test the role of GAP65 in gastrolith formation, an RNAi (RNA interference) technique using in vivo injections of GAP65 dsRNA to intermolt crayfish was applied. The initiation of gastrolith formation was achieved by injection of ecdysone. In FIG. 5 gastrolith of crayfish injected with either ecdysone+GAP65 dsRNA, ecdysone+dsRNA carrier, or with carriers of both ecdysone and dsRNA can be seen. FIG. 5A is a lateral view of a representative gastrolith dissected from each treatment group. […] In the control carriers injected the gastrolith appeared undeveloped or in an initial growth stage. […] The control carrier gastrolith was too small to be detected by the X-ray imaging.
Scanning electron microscope (SEM) images of gastroliths dissected from crayfish injected with GAP65 dsRNA and ecdysone, and from crayfish injected only with ecdysone and dsRNA carrier, are presented in FIG. 6. FIG. 6A-B depict images of a cross section through the central part of the gastrolith. […] The dense mineral layered structure observed in the gastrolith of ecdysone and carrier injected is replaced with a loosely packed columnar mineralization structure, which resembles hollow straws, in the gastrolith of ecdysone and GAP65 dsRNA injected crayfish.

[2] = test system: GAP10 transcripts; assay: in vivo silencing of GAP10 transcripts during premolt; set-up: species or system C. quadricarinatus
Method: In order to examine the effect of in vivo silencing of GAP10 transcripts during premolt, intermolt males (MMI=0), each weighing 5-10 g were divided to four groups. Ten animals were injected daily with both ecdysone, and dsRNA of GAP 10; eight were injected with ecdysone; six were injected with both ecdysone and dsRNA of CqVg; and four were injected with ecdysone carrier only, i.e., 10% ethanol in Diethyl pyrocarbonate-treated doubly distilled water. Injections were given into the sinus of the first abdominal segment. For each individual crayfish the experiment was terminated at MMI=0.1, at which time the animal was anesthetized and its gastroliths were dissected out. Premolt duration was defined as the number of days until termination. […] Another group was injected with ecdysone and CqVg dsRNA (a hepatopancreatic-specific gene found mostly in reproductive females) and served as a control for sequence-specific silencing.
For analysis of the gastrolith surface roughness, optical phase interference microscopy (OPIM) analysis was used, providing topographic images of representative surface samples from each group (FIG. 37B).

[3] = test system: C. quadricarinatus; settings: cited from earlier work
[4] = isoelectric focusing then SDS-PAGE of gastrolith protein fraction; type: physicochemical; settings: two spots of ~9 and ~11 kDa identified as GAP10, respectively
Method: (§1) Proteins that were both phosphorylated and calcium-binding were prepared for LC-MS. Two of them, migrating at apparent molecular masses of ˜9 and ˜11 kDa (circled), were identified as GAP10 (FIG. 33B), and their pIs were calculated as 5 and 5.5, respectively. Since GAP10 has a mildly acidic pI, it is negatively charged at the pH of the gastrolith pouch, which is approximately 8.7.

[5] = calcium binding on nitrocellulose membrane after SDS-PAGE; settings: gastrolith protein fraction transferred to nitrocellulose membrane
Method: FIGS. 33A-B. relate to the identification of GAP10 and characterization of its phosphorylation and calcium-binding properties; FIG. 33A, left: SDS-PAGE stained with Coomassie blue; middle: Staining of the same gel for phosphoproteins; right: transfer of the same fraction to a nitrocellulose membrane and incubation with […]. Spots identified as GAP10 by LC-MS are circled. Abbreviations: PC (positive control).
as §1

[6] = stability of ACC held at room temperature, tested by Raman spectroscopy; type: physicochemical
Method: The precipitated calcium carbonate was checked over long periods for the amorphous/crystalline state.
(§2) 100 μl of 1M CaCl2 was added to 10 ml double distilled water (final concentration: 10 mM). 80 μl from the protein extraction solution (1.2 μg/μl) were added (final concentration ˜10 μg/ml), 100 μl of 1M Na2CO3 (final concentration: 10 mM) was added following an intensive shaking. The vial was centrifuged for 5 min at 4000 rpm, the precipitate was smeared over a glass slide and instantly dried with air flow. […] The observations were confirmed by Raman spectroscopy.

[7] = in vitro calcium carbonate precipitation assay testing the stabilization of ACC; type: physicochemical; settings: for form of calcium carbonate precipitated in the presence of the additive: in vitro precipitation from calcium salt and carbonate
Description: Analysis of the product may comprise testing the resultant CaCO3 by various methods (as XRD, electron diffraction, SEM) to verify its amorphous nature. […] The phosphate peak at 950 cm^−1, is proportional to the phosphate content in the sample. Yet, the ratio between 1080 to 950 cm^−1 is proportional, but not directly indicative of the CO3^2−/[…] ratio.
FIG. 7 presents precipitation results of calcium carbonate in the presence of GAP65 and in the presence of other protein (trypsin). SEM images in FIG. 7A indicate the distinct polymorph of calcium carbonate in each treatment.
as §2
100 μl of 1M CaCl2 were added to 10 ml double-distilled water (DDW), attaining the final concentration of […]. 200 μl of P-serine (P-Ser) solution (100 mM) were added to the solution, attaining 2 mM of P-Ser. 100 μl of 1M Na2CO3 (final concentration: 10 mM) were added following an intensive shaking. The vial was centrifuged for 5 min at 4000 rpm at room temperature. The upper solution was removed and the precipitation was smeared over a glass slide and instantly dried by air flow.

## C[C@H]([C@H](O)CCC(C)(C)O)[C@H]1CC[C@@]2(O)C3=CC(=O)[C@@H]4C[C@@H](O)[C@@H](O)C[C@]4(C)[C@H]3CC[C@]12C [ecdysone]
[1]; SEM x15000
  gastrolith spherule size: 40-60 nm
[1]; cross section through central part of gastrolith
  gastrolith structure by SEM: normal gastrolith appearance
[1]; dissected gastrolith, lateral view, gastrolith formation initiated by ecdysone
  gastrolith morphology: normal with no deformities
[1]; dorsal X-ray view prior to dissection
  gastrolith mineral density by X-ray imaging: normal with no effects on mineral densities
[2]; OPIM topographic images
  Swedish height (SH) of gastrolith surface: 4.4±0.5 μm
[2]; repeated daily injections to intermolt males, dsRNA given together with ecdysone
  average premolt duration (number of days until reaching MMI=0.1): 10.1 days
[2]; top view of dissected gastroliths
  gastrolith surface appearance: fairly smooth
[3]; known for ecdysone administration
  typical induced premolt duration until ecdysis: 10 to 14 days
[3]; reached 1-2 days before the molt event
  peak observed molt mineralization index (MMI): 0.125-0.145

B1: GAP10: Gastrolith protein of Cherax quadricarinatus, calculated 10 kDa, SEQ ID NO. 24 (fragment SEQ ID NO. 25) (protein, listed as Cherax quadricarinatus)
chain: MKIFILLVVIGVVSAQLGAGQVGGAAPAQGAGGAAGVGGPGAAPVNPYGPKVYGSGLNNPFAFPHNTWEVSRAAAVAATNPNLYVRVESDGGWEFTNRFGEKVDVYNSFGQELD
[4]
  pI: 5 and 5.5
[5]
  calcium binding: calcium-binding ability

B2: GAP65: Negatively charged glycoprotein of about 65 kDa from Cherax quadricarinatus gastrolith, SEQ ID NO. 1; used as enriched DEAE fraction 17 (protein, listed as Cherax quadricarinatus)
chain: MIRRVTTPLLALLLAGWVVAQTTDMDPEQYCARRDDEYFRKDFGDPAEFASDYRANCGVYYRCVPAPAGKRSISASQCQSELFFDVQQQICERKSKVTNCEQIDKEHPPQPFWPLREGEESQCKSGEIMCGSGECLPQHRFCDENSDCADGSDENICTPDKDPNRADVCEPRTCLWSQGCFCSVDGTRIPGDLTVDQTPQMITITFTGAINERNFRIFQDVFKDTVKHKGNDCTPKGTFFISHGFSNYSAIQELNRVGHEIAVSSITNNDNPDYWSKLSALDYEAEMDGARLIIEKFANITANEVLGIRVPKQRVGGNRQFRMMVDWGFLYDSSISAPMGRLPLWPYTLMHRMPHKCLGNDQNCPSQNFTVWEMVINEMDRRDDPQFDERLTGCHFVDQCANIQSPEQFRAFLDNNLARHYRTNRAPLGLHFTSGYFETRRDFLREFVKWVRETALSGDYFFVTMQQVINWMEAPTELTAINNFQEWKGKCEVKGQPYCSLPNPCPKKVPRIFPNEEEMFLYTCMECPNTYPWLGDPHGNGFLDIPDF
[6]; 6.5-month old ACC, room temperature
  Raman spectra (around the 1085 peak) compared with calcite: mixture seemingly comprising ACC and vaterite
[6]; SEM 40 days after the precipitation
  nanosphere size of ACC: 50-500 nm
[6]; room temperature, Raman spectra
  time the ACC remained stable (amorphous state kept): at least 1 months
[7]; 10 mM CaCl2, 10 mM Na2CO3, ~10 μg/ml protein, estimated
  ACC share of the total CaCO3: at least 50%
[7]; after precipitation and drying, broad peak about 1080 cm^-1 indicates ACC
  Raman spectroscopy (RS) of the CaCO3 precipitate: distinct spectra of ACC
[7]; SEM
  form of calcium carbonate precipitated in the presence of the additive: amorphous CaCO3; also recorded: amorphous form (ACC)
[7]; precipitation in the presence of GAP65, confirmed by Raman spectroscopy
  CaCO3 deposits characterized by polarized microscope: mixture of calcite, vaterite, and ACC

B3: trypsin: Other (inert) protein used in equivalent amount as control in the precipitation assay (protein, UniProt P00760 24-246, looked up)
Serine protease 1: IVGGYTCGANTVPYQVSLNSGYHFCGGSLINSQWVVSAAHCYKSGIQVRLGEDNINVVEGNEQFISASKSIVHPSYNSNTLNNDIMLIKLKSAASLNSRVASISLPTSCASAGTQCLISGWGNTKSSGTSYPDVLKCLKAPILSDSSCKSAYPGQITSNMFCAGYLEGGKDSCQGDSGGPVVCSGKLQGIVSWGSGCAQKNKPGVYTKVCNYVSWIKQTIASN
[7]; SEM
  form of calcium carbonate precipitated in the presence of the additive: rapid crystallization
[7]; same conditions, control protein, SEM
  size of calcium carbonate crystals formed: 10 μm
